# Source: PMC2877398 (Structure (London, England : 1993), 2010)
# “And” between values parts separate entries of the source, which are not always exact repeats. Equal entries are not always repeated.
# T1: S. cerevisiae RNA guanylyltransferase Ceg1 (1–459), full length (S. cerevisiae, UniProt Q01159 1-459)
# T1 sequence (looked up): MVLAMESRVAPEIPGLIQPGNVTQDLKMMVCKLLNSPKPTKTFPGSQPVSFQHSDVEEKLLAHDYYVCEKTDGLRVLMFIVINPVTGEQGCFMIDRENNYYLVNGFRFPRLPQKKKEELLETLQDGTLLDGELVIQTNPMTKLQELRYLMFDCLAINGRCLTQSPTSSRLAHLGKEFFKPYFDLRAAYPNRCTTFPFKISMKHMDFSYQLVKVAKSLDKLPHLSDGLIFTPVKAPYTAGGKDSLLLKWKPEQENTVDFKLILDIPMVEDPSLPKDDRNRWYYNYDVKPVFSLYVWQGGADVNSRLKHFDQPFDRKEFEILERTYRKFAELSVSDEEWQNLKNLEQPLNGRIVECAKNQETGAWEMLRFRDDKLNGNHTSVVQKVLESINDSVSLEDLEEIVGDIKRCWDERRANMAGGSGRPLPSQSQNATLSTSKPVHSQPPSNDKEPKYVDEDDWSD
# How the values were obtained:
# [1] = biological target: T1, S. cerevisiae RNA guanylyltransferase …; test: SEC
# crystal structure = biological target: the molecule itself; test: crystal structure
binder,measurement,setting,value
"S. cerevisiae RNA triphosphatase Cet1 (241–549) (domain or fragment, UniProt O13297 241-549, looked up) YRNVPIWAQKWKPTIKALQSINVKDLKIDPSFLNIIPDDDLTKSVQDWVYATIYSIAPELRSFIELEMKFGVIIDAKGPDRVNPPVSSQCVFTELDAHLTPNIDASLFKELSKYIRGISEVTENTGKFSIIESQTRDSVYRVGLSTQRPRFLRMSTDIKTGRVGQFIEKRHVAQLLLYSPKDSYDVKISLNLELPVPDNDPPEKYKSQSPISERTKDRVSYIHNDSCTRIDITKVENHNQNSKSRQSETTHEVELEINTPALLNAFDNITNDSKEYASLIRTFLNNGTIIRRKLSSLSYEIFEGSKKVM",stoichiometry N,[1],2 Cet1 protomers per Ceg1 (2:1) and 1 Cet1 protomers per Ceg1 (2:2)
same,stoichiometry N,crystal structure,2 protomers
